According to paper PMC9371650 (Proceedings of the National Academy of Sciences of the …, 2022):

Assays:
[1] = biological target: ectodomain of glycoprotein B (ect-gB), Epstein-Barr virus (Epstein-Barr virus); assay: native gel or EMSA
[2] = biological target: virion-encoded gB expressed on EBV-positive Akata cells (Epstein-Barr virus (HHV-4), strain …, UniProt P03188, strain); assay: cell-based or functional assay
[3] = biological target: T1, ectodomain of glycoprotein B (ect-gB), Epstein-Barr virus (Epstein-Barr virus (HHV-4), strain M81 …); assay: SPR
T1 chain 1: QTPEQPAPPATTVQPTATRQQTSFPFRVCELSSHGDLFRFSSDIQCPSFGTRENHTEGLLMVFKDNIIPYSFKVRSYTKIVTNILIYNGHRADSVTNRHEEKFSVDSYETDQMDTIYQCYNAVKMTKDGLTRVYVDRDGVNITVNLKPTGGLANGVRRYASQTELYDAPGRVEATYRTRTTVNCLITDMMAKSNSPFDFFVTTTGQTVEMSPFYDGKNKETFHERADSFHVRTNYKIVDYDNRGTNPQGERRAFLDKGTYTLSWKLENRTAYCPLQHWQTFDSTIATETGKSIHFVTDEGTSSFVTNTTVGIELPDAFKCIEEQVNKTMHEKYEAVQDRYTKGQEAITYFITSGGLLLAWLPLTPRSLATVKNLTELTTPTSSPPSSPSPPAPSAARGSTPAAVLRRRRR
T1 chain 2: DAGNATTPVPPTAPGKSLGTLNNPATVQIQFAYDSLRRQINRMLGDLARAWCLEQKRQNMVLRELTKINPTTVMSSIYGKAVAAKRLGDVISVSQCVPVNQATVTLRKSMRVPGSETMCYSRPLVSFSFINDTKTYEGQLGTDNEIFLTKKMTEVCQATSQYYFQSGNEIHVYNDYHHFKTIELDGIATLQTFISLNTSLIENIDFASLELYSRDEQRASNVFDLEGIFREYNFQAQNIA

[4] = biological target: T1, ectodomain of glycoprotein B (ect-gB), …

How did the stoichiometry N [1] turn out when “ectodomain of glycoprotein B (ect-gB), Epstein-Barr virus (domain or fragment)” was run?
Its stoichiometry N is 3.

B1: 3A5, rabbit anti-EBV gB neutralizing monoclonal antibody (antibody, V domains shown)
VH: QSVKESGGRLVTPGTPLTLTCTVSGFSLSSYEMGWVRQAPGEGLEWIGTISTGGSSYYASWAKGRFTISRTSTTVDLKMTSLTTADTATYFCARGYGGYGIGAGYFNIWGPGTLVTVSS
VL: ALVMTQTPSSVSEPVGGTVTIKCQASQSISSYLAWYQRKPGQRPKLLIYGTSTLASGVPSRFIGSGSGTDYTLTISDLECDDAATYYCQQGFSTSNVYNSFGGGTKVDIK
How did the “IC50 of neutralization of Akata-EBV infection of HNE1 epithelial cells” value [2] turn out when B1 was run?
Its value is 0.31 µg/mL.

And the “IC50 of neutralization of CNE2-EBV infection of Akata B cells” value [2]?
The value was 4.9 µg/mL.

B2: antigen binding fragment of 3A5 (3A5Fab) (Fab, V domains shown)
VH: QSVKESGGRLVTPGTPLTLTCTVSGFSLSSYEMGWVRQAPGEGLEWIGTISTGGSSYYASWAKGRFTISRTSTTVDLKMTSLTTADTATYFCARGYGGYGIGAGYFNIWGPGTLVTVSS
VL: ALVMTQTPSSVSEPVGGTVTIKCQASQSISSYLAWYQRKPGQRPKLLIYGTSTLASGVPSRFIGSGSGTDYTLTISDLECDDAATYYCQQGFSTSNVYNSFGGGTKVDIK
Which Kd [3] does the source give for B2 here?
Its Kd is ~3.93 nM.

B3: 1E12 (antibody, V domains shown)
VH: QSVKESGGRLVTPGTPLTLTCTVSGIDLSTYVMTWVRQAPGKGLECIGIIGYGGSTYYASWATGRFTISKTSTTVDLRMTSLTTEDTATYFCARGVSSNLYRGMNLWGQGTLVTVSS
VL: ALVMTQTPSPVSAAVGGTVSISCQSSPSVYSNYLSWYQQKPGQPPKLLIYETSKLESGVPSRFSGSGSGTQFTLTISGVQCDDAATYYCAGGYSGISDTFAFGGGTKVDIK
Does B3 bind [4]?
Result: binds

B4: 3A3, rabbit anti-EBV gB neutralizing monoclonal antibody (antibody, V domains shown)
VH: QSVKESGGRLVTPGTPLTLTCTVSGFSLSSYAMSWVRQAPGKGLEYIGVIYASGSTYYASWAKGRFTISRTATTVDLKITSPTTEDTATYFCGRGVSTNMWGPGTLVTVSS
VL: DLVMTQTPSSVSAAVGGTVTIKCQASQSLGGGLAWYQQKPGQRPKLLIYSASTLESGVPSRFRGSGSGTEFTLTISDLECADAATYYCQSAYGPTSNGLFNAFGGGTKVVIK
Which “IC50 of neutralization of Akata-EBV infection of HNE1 epithelial cells” value [2] does the source give for B4 here?
Its value is 0.08 µg/mL.

What about the “IC50 of neutralization of CNE2-EBV infection of Akata B cells” value [2] of the same molecule?
The value was 2.97 µg/mL.

B5: antigen binding fragment of 3A3 (3A3Fab) (Fab, V domains shown)
VH: QSVKESGGRLVTPGTPLTLTCTVSGFSLSSYAMSWVRQAPGKGLEYIGVIYASGSTYYASWAKGRFTISRTATTVDLKITSPTTEDTATYFCGRGVSTNMWGPGTLVTVSS
VL: DLVMTQTPSSVSAAVGGTVTIKCQASQSLGGGLAWYQQKPGQRPKLLIYSASTLESGVPSRFRGSGSGTEFTLTISDLECADAATYYCQSAYGPTSNGLFNAFGGGTKVVIK
B5 was tested. Which Kd [3] did it give?
Its Kd is ~3.49 nM.
